The term Kd denotes a measure of binding affinity in units of concentration.

Data on 27 molecules can be found in paper PMC10786891, “Massively parallel profiling of RNA-targeting CRISPR-Cas13d”.

First the molecules themselves.
T1: EsCas13d, nuclease-dead (Eubacterium siraeum, UniProt B0MS50, R295A;H300A;R849A;H854A)
T1 sequence: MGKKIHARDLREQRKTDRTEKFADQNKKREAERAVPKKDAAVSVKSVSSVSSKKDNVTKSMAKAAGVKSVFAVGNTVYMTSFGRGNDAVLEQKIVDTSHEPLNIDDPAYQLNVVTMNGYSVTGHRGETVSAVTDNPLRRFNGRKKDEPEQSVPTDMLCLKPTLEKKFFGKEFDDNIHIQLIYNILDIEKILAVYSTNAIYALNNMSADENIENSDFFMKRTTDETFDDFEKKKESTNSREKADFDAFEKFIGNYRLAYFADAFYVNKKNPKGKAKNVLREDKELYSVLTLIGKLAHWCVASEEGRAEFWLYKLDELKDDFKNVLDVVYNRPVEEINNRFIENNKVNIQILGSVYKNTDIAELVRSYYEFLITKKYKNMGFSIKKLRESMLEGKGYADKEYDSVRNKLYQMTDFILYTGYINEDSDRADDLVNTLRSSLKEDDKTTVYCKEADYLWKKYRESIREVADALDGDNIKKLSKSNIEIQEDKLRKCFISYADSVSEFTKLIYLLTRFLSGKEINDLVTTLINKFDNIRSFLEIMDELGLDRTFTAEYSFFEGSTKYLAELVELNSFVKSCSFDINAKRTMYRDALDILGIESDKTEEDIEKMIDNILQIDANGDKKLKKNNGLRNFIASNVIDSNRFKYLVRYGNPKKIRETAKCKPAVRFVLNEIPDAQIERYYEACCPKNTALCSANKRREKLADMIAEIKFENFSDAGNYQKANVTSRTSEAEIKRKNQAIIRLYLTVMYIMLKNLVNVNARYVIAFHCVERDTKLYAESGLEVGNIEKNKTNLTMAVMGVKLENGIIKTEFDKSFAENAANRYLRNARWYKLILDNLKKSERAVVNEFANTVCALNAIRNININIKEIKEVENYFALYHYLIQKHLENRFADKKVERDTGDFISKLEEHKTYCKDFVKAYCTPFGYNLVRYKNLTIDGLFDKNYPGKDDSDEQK

B1: target 2 MT 5'PFS UCA 3'PFS UAG (mixed)
RNA 1: CACCCGUGCAAAAUUGCAGGGGUCUAAAACCUUCUCCAAAUUGUUUCAUCCU
RNA 2: GGGAAUGGAUCCACAUCUACGAAUUCUCAAGGAUGAAACAAUUUGGAGAAGUAGAGAUCGGAAGAGCACACGU
B2: target 2 MT 5'PFS GGC 3'PFS CUU (mixed)
RNA 1: CACCCGUGCAAAAUUGCAGGGGUCUAAAACCUUCUCCAAAUUGUUUCAUCCU
RNA 2: GGGAAUGGAUCCACAUCUACGAAUUCGGCAGGAUGAAACAAUUUGGAGAAGCUUAGAUCGGAAGAGCACACGU
B3: target 2 MT 5'PFS GGG 3'PFS ACC (mixed)
RNA 1: CACCCGUGCAAAAUUGCAGGGGUCUAAAACCUUCUCCAAAUUGUUUCAUCCU
RNA 2: GGGAAUGGAUCCACAUCUACGAAUUCGGGAGGAUGAAACAAUUUGGAGAAGACCAGAUCGGAAGAGCACACGU
B4: target 2 MT 5'PFS UUA 3'PFS CAU (mixed)
RNA 1: CACCCGUGCAAAAUUGCAGGGGUCUAAAACCUUCUCCAAAUUGUUUCAUCCU
RNA 2: GGGAAUGGAUCCACAUCUACGAAUUCUUAAGGAUGAAACAAUUUGGAGAAGCAUAGAUCGGAAGAGCACACGU
B5: target 2 MT 5'PFS AAA 3'PFS ACC (mixed)
RNA 1: CACCCGUGCAAAAUUGCAGGGGUCUAAAACCUUCUCCAAAUUGUUUCAUCCU
RNA 2: GGGAAUGGAUCCACAUCUACGAAUUCAAAAGGAUGAAACAAUUUGGAGAAGACCAGAUCGGAAGAGCACACGU
B6: target 2 MT 5'PFS UGA 3'PFS CCA (mixed)
RNA 1: CACCCGUGCAAAAUUGCAGGGGUCUAAAACCUUCUCCAAAUUGUUUCAUCCU
RNA 2: GGGAAUGGAUCCACAUCUACGAAUUCUGAAGGAUGAAACAAUUUGGAGAAGCCAAGAUCGGAAGAGCACACGU
B7: target 2 MT 5'PFS AAA 3'PFS ACA (mixed)
RNA 1: CACCCGUGCAAAAUUGCAGGGGUCUAAAACCUUCUCCAAAUUGUUUCAUCCU
RNA 2: GGGAAUGGAUCCACAUCUACGAAUUCAAAAGGAUGAAACAAUUUGGAGAAGACAAGAUCGGAAGAGCACACGU
B8: target 2 MT 5'PFS GGG 3'PFS ACG (mixed)
RNA 1: CACCCGUGCAAAAUUGCAGGGGUCUAAAACCUUCUCCAAAUUGUUUCAUCCU
RNA 2: GGGAAUGGAUCCACAUCUACGAAUUCGGGAGGAUGAAACAAUUUGGAGAAGACGAGAUCGGAAGAGCACACGU
B9: target 2 MT 5'PFS UUG 3'PFS CCU (mixed)
RNA 1: CACCCGUGCAAAAUUGCAGGGGUCUAAAACCUUCUCCAAAUUGUUUCAUCCU
RNA 2: GGGAAUGGAUCCACAUCUACGAAUUCUUGAGGAUGAAACAAUUUGGAGAAGCCUAGAUCGGAAGAGCACACGU
B10: target 2 MT 5'PFS UGA 3'PFS CCG (mixed)
RNA 1: CACCCGUGCAAAAUUGCAGGGGUCUAAAACCUUCUCCAAAUUGUUUCAUCCU
RNA 2: GGGAAUGGAUCCACAUCUACGAAUUCUGAAGGAUGAAACAAUUUGGAGAAGCCGAGAUCGGAAGAGCACACGU
B11: target 2 MT 5'PFS GAC 3'PFS CGC (mixed)
RNA 1: CACCCGUGCAAAAUUGCAGGGGUCUAAAACCUUCUCCAAAUUGUUUCAUCCU
RNA 2: GGGAAUGGAUCCACAUCUACGAAUUCGACAGGAUGAAACAAUUUGGAGAAGCGCAGAUCGGAAGAGCACACGU
B12: target 2 MT 5'PFS CGA 3'PFS AUC (mixed)
RNA 1: CACCCGUGCAAAAUUGCAGGGGUCUAAAACCUUCUCCAAAUUGUUUCAUCCU
RNA 2: GGGAAUGGAUCCACAUCUACGAAUUCCGAAGGAUGAAACAAUUUGGAGAAGAUCAGAUCGGAAGAGCACACGU
B13: target 2 MT 5'PFS GAG 3'PFS ACG (mixed)
RNA 1: CACCCGUGCAAAAUUGCAGGGGUCUAAAACCUUCUCCAAAUUGUUUCAUCCU
RNA 2: GGGAAUGGAUCCACAUCUACGAAUUCGAGAGGAUGAAACAAUUUGGAGAAGACGAGAUCGGAAGAGCACACGU
B14: target 2 MT 5'PFS UUA 3'PFS CAC (mixed)
RNA 1: CACCCGUGCAAAAUUGCAGGGGUCUAAAACCUUCUCCAAAUUGUUUCAUCCU
RNA 2: GGGAAUGGAUCCACAUCUACGAAUUCUUAAGGAUGAAACAAUUUGGAGAAGCACAGAUCGGAAGAGCACACGU
B15: target 2 MT 5'PFS UUA 3'PFS CAG (mixed)
RNA 1: CACCCGUGCAAAAUUGCAGGGGUCUAAAACCUUCUCCAAAUUGUUUCAUCCU
RNA 2: GGGAAUGGAUCCACAUCUACGAAUUCUUAAGGAUGAAACAAUUUGGAGAAGCAGAGAUCGGAAGAGCACACGU
B16: target 2 MT 5'PFS GGC 3'PFS CUG (mixed)
RNA 1: CACCCGUGCAAAAUUGCAGGGGUCUAAAACCUUCUCCAAAUUGUUUCAUCCU
RNA 2: GGGAAUGGAUCCACAUCUACGAAUUCGGCAGGAUGAAACAAUUUGGAGAAGCUGAGAUCGGAAGAGCACACGU
B17: target 2 MT 5'PFS ACC 3'PFS UGU (mixed)
RNA 1: CACCCGUGCAAAAUUGCAGGGGUCUAAAACCUUCUCCAAAUUGUUUCAUCCU
RNA 2: GGGAAUGGAUCCACAUCUACGAAUUCACCAGGAUGAAACAAUUUGGAGAAGUGUAGAUCGGAAGAGCACACGU
B18: target 2 MT 5'PFS CGU 3'PFS ACU (mixed)
RNA 1: CACCCGUGCAAAAUUGCAGGGGUCUAAAACCUUCUCCAAAUUGUUUCAUCCU
RNA 2: GGGAAUGGAUCCACAUCUACGAAUUCCGUAGGAUGAAACAAUUUGGAGAAGACUAGAUCGGAAGAGCACACGU
B19: target 2 MT 5'PFS GGC 3'PFS CUA (mixed)
RNA 1: CACCCGUGCAAAAUUGCAGGGGUCUAAAACCUUCUCCAAAUUGUUUCAUCCU
RNA 2: GGGAAUGGAUCCACAUCUACGAAUUCGGCAGGAUGAAACAAUUUGGAGAAGCUAAGAUCGGAAGAGCACACGU
B20: target 2 MT 5'PFS UUA 3'PFS CAA (mixed)
RNA 1: CACCCGUGCAAAAUUGCAGGGGUCUAAAACCUUCUCCAAAUUGUUUCAUCCU
RNA 2: GGGAAUGGAUCCACAUCUACGAAUUCUUAAGGAUGAAACAAUUUGGAGAAGCAAAGAUCGGAAGAGCACACGU
B21: target 2 MT 5'PFS CGU 3'PFS ACG (mixed)
RNA 1: CACCCGUGCAAAAUUGCAGGGGUCUAAAACCUUCUCCAAAUUGUUUCAUCCU
RNA 2: GGGAAUGGAUCCACAUCUACGAAUUCCGUAGGAUGAAACAAUUUGGAGAAGACGAGAUCGGAAGAGCACACGU
B22: target 2 MT 5'PFS GGG 3'PFS ACA (mixed)
RNA 1: CACCCGUGCAAAAUUGCAGGGGUCUAAAACCUUCUCCAAAUUGUUUCAUCCU
RNA 2: GGGAAUGGAUCCACAUCUACGAAUUCGGGAGGAUGAAACAAUUUGGAGAAGACAAGAUCGGAAGAGCACACGU
B23: target 2 MT 5'PFS UAG 3'PFS CAC (mixed)
RNA 1: CACCCGUGCAAAAUUGCAGGGGUCUAAAACCUUCUCCAAAUUGUUUCAUCCU
RNA 2: GGGAAUGGAUCCACAUCUACGAAUUCUAGAGGAUGAAACAAUUUGGAGAAGCACAGAUCGGAAGAGCACACGU
B24: target 2 MT 5'PFS GGG 3'PFS ACU (mixed)
RNA 1: CACCCGUGCAAAAUUGCAGGGGUCUAAAACCUUCUCCAAAUUGUUUCAUCCU
RNA 2: GGGAAUGGAUCCACAUCUACGAAUUCGGGAGGAUGAAACAAUUUGGAGAAGACUAGAUCGGAAGAGCACACGU
B25: target 2 MT 5'PFS GGC 3'PFS CUC (mixed)
RNA 1: CACCCGUGCAAAAUUGCAGGGGUCUAAAACCUUCUCCAAAUUGUUUCAUCCU
RNA 2: GGGAAUGGAUCCACAUCUACGAAUUCGGCAGGAUGAAACAAUUUGGAGAAGCUCAGAUCGGAAGAGCACACGU
B26: target 1 insU 3' of 12,insU 3' of 1 (mixed)
RNA 1: CACCCGUGCAAAAAUGCAGGGGUCUAAAACUGAGCGGAUAACCUCUCUAUGG
RNA 2: GGGAAUGGAUCCACAUCUACGAAUUCGUACCAUAGAGAGGUUUAUCCGCUCAUCCGAGAUCGGAAGAGCACACGU
B27: target 1 C6U,A16G (mixed)
RNA 1: CACCCGUGCAAAAAUGCAGGGGUCUAAAACUGAGCGGAUAACCUCUCUAUGG
RNA 2: GGGAAUGGAUCCACAUCUACGAAUUCGUACCAUAGGGAGGUUAUCUGCUCACCGAGAUCGGAAGAGCACACGU

This data set concerns the target T1, EsCas13d, nuclease-dead. Kind of data set: crRNA (strand 1, pre-loaded); Mg2+; 40 mM Tris-HCl pH 7.5, 150 mM NaCl, 6 mM MgCl2, 1 mM DTT, 0.1% Tween-20, 0.2 mg/ml BSA; 25 C; 10 min per concentration, then washed. Conditions: tags: His6-TwinStrep-SUMO cleaved; N-terminal SNAP kept (SNAP-Surface 488); label: 3' end held by stalled T7 RNA polymerase.
Molecule B1 gave a Kd of 3.9 ± 0.5 nM.

On to B2, for which the Kd was 17.6 ± 1.8 nM.

B3 yielded a Kd of 22 ± 4 nM.

B4 gave a Kd of 14.3 ± 1.3 nM.

Molecule B5 gave a dissociation constant (Kd) of 9.2 ± 2.8 nM.

The molecule B6 yielded a Kd of 15.6 ± 2.8 nM.

In the case of B7, binding was characterised by a dissociation constant (Kd) of 7.8 ± 2.2 nM.

With B8, the Kd was found to be 10.4 ± 0.6 nM.

In the case of B9, the dissociation constant (Kd) is about 80 nM.

Regarding B10, binding was characterised by a dissociation constant (Kd) of 9.2 ± 1 nM.

Consider B11, for which the Kd stood at 14.8 ± 3.2 nM.

With B12, the dissociation constant (Kd) amounted to 7.1 ± 1.4 nM.

With B13, the dissociation constant Kd was 6.7 ± 0.32 nM.

In the case of B14, the equilibrium dissociation constant (Kd) stood at 30 ± 7 nM. Against the preceding molecule, the Kd is about 4.5-fold higher.

Regarding B15, binding was put at a Kd of 18.5 ± 1.9 nM.

B16 came in with a dissociation constant Kd of 12.9 ± 1.3 nM.

B17 returned an equilibrium dissociation constant (Kd) of 18 ± 6 nM.

For the molecule B18, the equilibrium dissociation constant (Kd) was 23 ± 5 nM.

In turn, B19 yielded a Kd of 12 ± 1.9 nM.

Turning to B20, binding was put at a Kd of 14.4 ± 2.6 nM.

As for B21, the Kd turned out to be 21 ± 5 nM.

Turning to B22, binding was characterised by a dissociation constant (Kd) of 9.4 ± 0.8 nM.

The molecule B23 returned a Kd of 2.69 ± 0.34 nM. Compared with the last molecule, the Kd is about 3.5-fold lower.

B24 gave a dissociation constant (Kd) of 9.3 ± 0.4 nM.

In turn, B25 registered a Kd of 13.2 ± 1.2 nM.

With B26, binding was characterised by a dissociation constant (Kd) of 8.23 ± 0.33 nM. Against the preceding molecule, the Kd is about 1.6-fold lower.

In turn, B27 yielded a Kd of 31.9 ± 2.2 nM.
